“And” between values parts separate entries of the source, which are not always exact repeats. Identical values can stand only once.
Tests used:
[1] = biological target: T1, bovine colostrum GalNAc-transferase (Bos taurus, UniProt Q07537); experiment: Transfer of N-acetylgalactosamine to protein acceptors; type: biochemical; design: from tissue; host or cells: bovine colostrum; details: for acceptor activity (in words): native or reduced and carboxymethylated state
T1 sequence (Q07537 41-559 limits assumed): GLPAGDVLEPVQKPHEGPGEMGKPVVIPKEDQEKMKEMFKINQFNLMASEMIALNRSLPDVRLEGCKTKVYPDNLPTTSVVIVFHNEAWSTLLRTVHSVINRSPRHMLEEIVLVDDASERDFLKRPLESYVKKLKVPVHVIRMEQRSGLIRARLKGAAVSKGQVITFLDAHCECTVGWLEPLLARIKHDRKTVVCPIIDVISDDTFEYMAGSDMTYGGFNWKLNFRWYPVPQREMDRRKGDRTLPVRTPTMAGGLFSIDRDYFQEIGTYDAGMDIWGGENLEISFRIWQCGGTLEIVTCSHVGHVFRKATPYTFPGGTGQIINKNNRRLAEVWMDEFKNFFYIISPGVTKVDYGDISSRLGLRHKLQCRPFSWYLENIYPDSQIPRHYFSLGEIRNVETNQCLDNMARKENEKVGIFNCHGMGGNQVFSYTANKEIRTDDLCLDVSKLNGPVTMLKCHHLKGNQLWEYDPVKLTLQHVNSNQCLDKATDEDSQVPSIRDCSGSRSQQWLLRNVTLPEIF
Method: The above conclusions and the predictions of the specificity algorithm are validated experimentally by studying the ability of bovine colostrum GalNAc-transferase to transfer N-acetylgalactosamine to a variety of acceptors, both native proteins and synthetic acceptor peptides. The transfer of N-acetylgalactosamine to protein acceptors is assayed as described by Elhammer and Kornfeld, 1986, with minor modifications. The concentration of UDP-GalNAc is saturating in all assays; a Km of 8 μM is reported for bovine colostrum GalNAc-transferase (Elhammer and Kornfeld, 1986).
The transfer of N-acetylgalactosamine to protein acceptors was assayed
under standard conditions (see Material and Methods). The acceptor
concentration was 65 μM, the enzyme concentration approximately 65
mU/ml and assay time was 60 minutes. The transfer to both native and
reduced-carboxymethylated acceptors was assayed.

[2] = biological target: T1, bovine colostrum GalNAc-transferase; design: host or cells: bovine colostrum; details: Elhammer and Kornfeld, 1986; read-out: Km for UDP-GalNAc; cited from earlier work
[3] = biological target: T2, cloned soluble GalNAc-transferase (GalNAcTs) (Bos taurus, UniProt Q07537); experiment: Kinetic parameters with the cloned soluble GalNAc-transferase (Bond Elut assay); type: biochemical, bovine; details: read-out: Km for UDP-GalNAc
T2 construct: The plasmid pAC373-GalNAcT (Homa et al., 1993) which contains the full length GalNAc-transferase gene; honeybee melittin signal peptide (21 aa) (N, cleaved yes); made in house; host or cells: Sf9 cells / baculovirus, purified from serum-free culture medium on apomucin-Sepharose
T2 sequence (Q07537 48-559 limits assumed): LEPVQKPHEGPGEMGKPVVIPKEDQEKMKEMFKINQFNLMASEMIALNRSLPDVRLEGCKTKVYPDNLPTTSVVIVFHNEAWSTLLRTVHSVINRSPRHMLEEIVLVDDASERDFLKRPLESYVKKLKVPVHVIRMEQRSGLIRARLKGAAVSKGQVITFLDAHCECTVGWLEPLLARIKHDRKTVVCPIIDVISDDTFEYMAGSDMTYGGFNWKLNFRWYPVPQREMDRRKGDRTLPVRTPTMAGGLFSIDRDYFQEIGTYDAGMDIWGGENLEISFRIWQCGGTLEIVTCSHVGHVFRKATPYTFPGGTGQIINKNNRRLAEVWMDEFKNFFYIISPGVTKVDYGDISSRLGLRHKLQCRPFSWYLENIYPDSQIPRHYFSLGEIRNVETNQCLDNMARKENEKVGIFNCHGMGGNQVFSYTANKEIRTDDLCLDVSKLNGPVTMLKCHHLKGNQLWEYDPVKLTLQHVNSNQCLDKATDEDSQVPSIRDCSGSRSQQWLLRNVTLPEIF

[4] = test system: GalNAc-transferase purified from porcine submaxillary glands; details: Wang et al., 1992; read-out: Km for UDP-GalNAc; cited from earlier work

Product formed, Native ([1]; native acceptor 65 μM, enzyme approx. 65 mU/ml, 60 minutes)	acceptor activity (in words) ([1]; listed as bovine cytochrome C)	acceptor activity (in words) ([1]; listed as cytochrome C)	Product formed, Reduced and carboxymethylated ([1]; reduced and carboxymethylated acceptor 65 μM, enzyme approx. 65 mU/ml, 60 minutes)	Km [3]	Molecule	Km [2]	Km [4]
< 0.1 nmol/min/mg	not an acceptor	completely inactive as an acceptor	< 0.1 nmol/min/mg	–	Bovine cytochrome C: protein with one Ser and eight Thr residues but no predicted potential sites	–	–
–	–	–	–	~1.7 µM and 1.7 µM	CC(=O)N[C@H]1[C@@H](OP(=O)(O)OP(=O)(O)OC[C@H]2O[C@@H](n3ccc(=O)[nH]c3=O)[C@H](O)[C@@H]2O)O[C@H](CO)[C@H](O)[C@@H]1O [UDP-GalNAc, UDP-N-acetylgalactosamine]	8 µM	6 µM

Source: patent US5910570A, “Cloned DNA encoding a UDP-GalNAc: polypeptide N-acetylgalactosaminy-ltransferase” (Pharmacia & Upjohn Company, priority 1997, dated 1999)
